From patent US20260078162A1

Columns and labels:
[1] = molecular target: BCMA-CAR with a CD3zeta signaling motif on CAR-Jurkat cells; assay: cell-based or functional assay
[2] = molecular target: anti-CD19 chimeric antigen receptor (CAR) on Jurkat NFAT-GFP cells; assay: cell-based or functional assay

IC50 of inhibition of BCMA-CAR-Jurkat cell activation (CD69) by NCI-H929 cells [1] | IC50 of inhibition of CAR-Jurkat activation (NFAT-GFP) by K562 cells [2] | NFAT-GFP downregulated at the maximum concentration tested [2] | Substance
36 nM | – | – | BCMAwt-Fc fusion protein (pDP39-BCMA ECD-FC)
– | 200 nM | 30% | CD19 wt-Fc (pDP10 CD19-WT FC) (Fc fusion)
